Experimental data published in patent US20030119072A1 (SIGNAL PHARMACEUTICALS, published 2003).
Where no end group is shown, it is not given here. The star is where a group is joined. Biotin = O=C1N[C@H]2[C@H](CS[C@H]2CCCCC(=O)*)N1; Ahx = NCCCCCC(=O)O

Tests used:
GST-WWP1.3 [1] = target: T1, GST-WWP1.3; test: TRF (DELFIA) plate assay, GST-WW domain coated at 30 µg/mL, titrated with biotinylated peptide
T1 construct: Coated on polystyrene plates; also called WWP1 WW domain 3; not shown: glutathione S-transferase (GST) fusion partner
T1 sequence (chain, as listed by the source): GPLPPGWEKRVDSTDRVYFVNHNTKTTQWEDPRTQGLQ

GST-WWP1.4 [2] = target: T2, GST-WWP1.4; test: as above
T2 construct: Coated on polystyrene plates; also called WWP1 WW domain 4; not shown: glutathione S-transferase (GST) fusion partner

GST-WWP1.1 [3] = target: T3, GST-WWP1.1; test: as above
T3 construct: also called WWP1 WW domain 1; not shown: glutathione S-transferase (GST) fusion partner
T3 sequence (chain, as listed by the source): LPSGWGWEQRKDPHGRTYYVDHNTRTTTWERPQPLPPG

GST-WWP1.2 [4] = target: T4, GST-WWP1.2; test: as above
T4 construct: Coated on polystyrene plates; also called second WW domain of WWP1; WWP1 WW domain 2; not shown: glutathione S-transferase (GST) fusion partner
T4 sequence (chain, as listed by the source): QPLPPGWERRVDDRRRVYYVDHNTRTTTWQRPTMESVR

GST alone = target: T5, GST alone (UniProt P08515 1-218 = GST); test: TRF (DELFIA) plate assay, GST coated, biotinylated peptide in solution
T5 construct: Control coated on plates in the TRF assay
T5 sequence (P08515 whole entry): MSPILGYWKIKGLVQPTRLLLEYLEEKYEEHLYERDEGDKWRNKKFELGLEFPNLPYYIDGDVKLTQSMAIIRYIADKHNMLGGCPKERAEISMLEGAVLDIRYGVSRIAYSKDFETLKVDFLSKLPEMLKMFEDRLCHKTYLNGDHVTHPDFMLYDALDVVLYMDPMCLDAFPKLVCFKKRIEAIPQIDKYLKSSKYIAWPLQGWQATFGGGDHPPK
Experimental: (§1) Each domain was individually expressed as a GST fusion protein. A TRF binding assay was used to evaluate interactions of PY motif peptides with these domains or GST alone. WW domains were bound to a 96-well polystyrene assay plate (Costar) overnight at 4° C. in a 200 mM carbonate buffer (Pierce, Rockford, Ill.) at different concentrations (0, 1, 3, 10 μg/mL). Unbound WW domain was washed away with distilled, deionized water and the plates were blocked with 1% BSA/carbonate buffer for 2 hours at room temperature. The plates were then washed with Tris/Tween buffer: 50 mM Tris pH 7.5, 100 mM NaCl, 1 mM EDTA, 1% BSA, 1 mM DTT, 0.1% Tween20, protease inhibitor cocktail (Boehringer-Mannheim).
(§2) These biotinylated peptides were solvated in Tris/Tween buffer and added to the assay plates (30 μM). The plates were incubated at 4° C. for varying amounts of capture time. The plates were then washed with PBS/0.1% Triton X100 and probed for 1 hour at room temperature with 1 μg/mL Europium-labeled streptavidin (DELFIA; Wallac Oy, Turku, Finland) in DELFIA Assay Buffer/0.1% Triton X100. The unbound Europium-labeled streptavidin was washed with PBS/0.1% Triton X100. Europium was released for time-resolved fluorescence measurements with the DELFIA Enhancement Buffer. Measurements were made on either the DELFIA 1234 or Victor fluorometers.

GST-WWP1.3 [5] = target: T1, GST-WWP1.3; test: TRF (DELFIA) plate assay, GST-WW domain coated at 0-10 µg/mL, biotinylated peptide 30 µM
Experimental: as §1, §2

GST-WWP1.4 [6] = target: T2, GST-WWP1.4; test: as above
Experimental: as §1, §2

GST-WWP1.2 [7] = target: T4, GST-WWP1.2; test: as above
Experimental: as §1, §2

GST-WWP1.3 [8] = target: T1, GST-WWP1.3; test: TRF (DELFIA) plate assay, GST-WW domain coated, biotinylated peptide in solution
Experimental: as §1, §2

GST-WWP1.4 [9] = target: T2, GST-WWP1.4; test: as above
Experimental: as §1, §2

GST-WWP1.1 [10] = target: T3, GST-WWP1.1; test: as above
Experimental: as §1, §2

GST-WWP1.2 [11] = target: T4, GST-WWP1.2; test: as above
Experimental: as §1, §2

GST-WWP1.2 [12] = target: T4, GST-WWP1.2; test: TRF (DELFIA) plate assay, peptide titration of coated GST-WW domain, GST background subtracted; nonlinear least squares fit and Scatchard analysis
Experimental: FIGS. 8A-8B are graphs illustrating the binding of increasing concentrations of a Smad7 PY motif peptide to WWP1 WW domain peptides. In FIG. 8A, binding to four GST fusion peptides (GST-WWP1.1, GST-WWP1.2, GST-WWP1.3 and GST-WWP1.4) is shown, as well as binding to RSP5.2 WW domain. WW domain peptides were coated on polystyrene plates at the indicated receptor coating concentrations, and blocked with BSA. Biotinylated PY motif peptide was then added at the indicated concentrations. Binding was assessed using a time-resolved fluorescence assay and is shown as cps. FIG. 8B presents a Scatchard analysis of the Smad7 PY motif to WWP1.2 and WWP1.4, as indicated.
A detailed evaluation of the interactions of Smad 7 with the WWP1 WW domains and the second WW domain from RSP5 was undertaken. GST was used to correct for nonspecific background interactions. The peptide titration of the WW domains was evaluated by a nonlinear, least squares fit of the data and Scatchard analysis (FIGS. 8A-8B).

Row | Binder | binding result (GST-WWP1.3 [1]) | binding result (GST-WWP1.4 [2]) | binding result (GST-WWP1.1 [3]) | binding result (GST-WWP1.2 [4]) | binding result (GST alone) | other results
1 | IPETPPPGYISEDG (not fully specified (N-terminus); also: biotin with C6 linker, end not given here, also called Smad 2 peptide) [Smad2 PY motif peptide IPETPPPGYISEDG] | no binding | no binding | no binding | no binding | – | –
2 | {Biotin-Ahx}-HPGTPPPPYTVGPG-NH2 (SMILES CC(C)[C@H](NC(=O)[C@@H](NC(=O)[C@H](Cc1ccc(O)cc1)NC(=O)[C@@H]1CCCN1C(=O)[C@@H]1CCCN1C(=O)[C@@H]1CCCN1C(=O)[C@@H]1CCCN1C(=O)[C@@H](NC(=O)CNC(=O)[C@@H]1CCCN1C(=O)[C@H](Cc1c[nH]cn1)NC(=O)CCCCCNC(=O)CCCC[C@@H]1SC[C@@H]2NC(=O)N[C@@H]21)[C@@H](C)O)[C@@H](C)O)C(=O)NCC(=O)N1CCC[C@H]1C(=O)NCC(N)=O, also called WBP1 peptide) [WBP1 PY motif peptide, Biotin-Ahx-HPGTPPPPYTVGPG-CONH2] | – | – | – | – | no binding (tested: 30 µM peptide) | binding result (GST-WWP1.3 [5]): binds; binding result (GST-WWP1.4 [6]): binds; binding result (GST-WWP1.2 [7]): binds
3 | {Biotin-Ahx}-PADTPPPAYLPPED-NH2 (SMILES CC(C)C[C@H](NC(=O)[C@H](Cc1ccc(O)cc1)NC(=O)[C@H](C)NC(=O)[C@@H]1CCCN1C(=O)[C@@H]1CCCN1C(=O)[C@@H]1CCCN1C(=O)[C@@H](NC(=O)[C@H](CC(=O)O)NC(=O)[C@H](C)NC(=O)[C@@H]1CCCN1C(=O)CCCCCNC(=O)CCCC[C@@H]1SC[C@@H]2NC(=O)N[C@@H]21)[C@@H](C)O)C(=O)N1CCC[C@H]1C(=O)N1CCC[C@H]1C(=O)N[C@@H](CCC(=O)O)C(=O)N[C@@H](CC(=O)O)C(N)=O, also called Smad 1 PY peptide; Biotin-Ahx-PADTPPPAYLPPED-CONH2) [Smad1 PY motif peptide PADTPPPAYLPPED] | no binding | no binding | no binding | no binding | – | –
4 | {Biotin-Ahx}-IPGTPPPNYDSLRL-NH2 (SMILES CC[C@H](C)[C@H](NC(=O)CCCCCNC(=O)CCCC[C@@H]1SC[C@@H]2NC(=O)N[C@@H]21)C(=O)N1CCC[C@H]1C(=O)NCC(=O)N[C@H](C(=O)N1CCC[C@H]1C(=O)N1CCC[C@H]1C(=O)N1CCC[C@H]1C(=O)N[C@@H](CC(N)=O)C(=O)N[C@@H](Cc1ccc(O)cc1)C(=O)N[C@@H](CC(=O)O)C(=O)N[C@@H](CO)C(=O)N[C@@H](CC(C)C)C(=O)N[C@@H](CCCNC(=N)N)C(=O)N[C@@H](CC(C)C)C(N)=O)[C@@H](C)O) [Nedd PY motif peptide, Biotin-Ahx-IPGTPPPNYDSLRL-CONH2] | – | – | – | – | no binding (tested: 30 µM peptide) | binding result (GST-WWP1.3 [8]): no binding (tested: 30 µM peptide); binding result (GST-WWP1.4 [9]): no binding (tested: 30 µM peptide); binding result (GST-WWP1.1 [10]): no binding (tested: 30 µM peptide); binding result (GST-WWP1.2 [11]): no binding (tested: 30 µM peptide)
5 | {Biotin-Ahx}-IPGTPPPNHDSLRL-NH2 (SMILES CC[C@H](C)[C@H](NC(=O)CCCCCNC(=O)CCCC[C@@H]1SC[C@@H]2NC(=O)N[C@@H]21)C(=O)N1CCC[C@H]1C(=O)NCC(=O)N[C@H](C(=O)N1CCC[C@H]1C(=O)N1CCC[C@H]1C(=O)N1CCC[C@H]1C(=O)N[C@@H](CC(N)=O)C(=O)N[C@@H](Cc1c[nH]cn1)C(=O)N[C@@H](CC(=O)O)C(=O)N[C@@H](CO)C(=O)N[C@@H](CC(C)C)C(=O)N[C@@H](CCCNC(=N)N)C(=O)N[C@@H](CC(C)C)C(N)=O)[C@@H](C)O) [Mutant Nedd PY motif peptide, Biotin-Ahx-IPGTPPPNHDSLRL-CONH2] | – | – | – | – | no binding (tested: 30 µM peptide) | binding result (GST-WWP1.3 [8]): no binding (tested: 30 µM peptide); binding result (GST-WWP1.4 [9]): no binding (tested: 30 µM peptide); binding result (GST-WWP1.1 [10]): no binding (tested: 30 µM peptide); binding result (GST-WWP1.2 [11]): no binding (tested: 30 µM peptide)
6 | PADTPPPAYMPPDD (not fully specified (N-terminus); also: biotin with C6 linker, end not given here, also called Smad 5 peptide) [Smad5 PY motif peptide PADTPPPAYMPPDD] | binds | binds | – | binds | – | –
7 | AGLTPPPGYLSEDG (not fully specified (N-terminus); also: biotin with C6 linker, end not given here, also called Smad 3 peptide) [Smad3 PY motif peptide AGLTPPPGYLSEDG] | no binding | no binding | no binding | no binding | – | –
8 | ELESPPPPYSRYPM (not fully specified (N-terminus); also: biotin with C6 linker, end not given here, also called Smad 7 peptide) [Smad7 PY motif peptide ELESPPPPYSRYPM] | – | – | – | – | – | Kd (GST-WWP1.2 [12]): 2400 nM
9 | GPESPPPPYSRLSP (not fully specified (N-terminus); also: biotin with C6 linker, end not given here, also called Smad 6 peptide) [Smad6 PY motif peptide GPESPPPPYSRLSP] | binds | binds | – | binds | – | –
